Results reported in publication PMC13254535, “The RecBCD complex interacts directly with the DNA sliding clamp in Escherichia coli” (Nucleic Acids Research, 2026).

Legend:
β-clamp = β-clamp (Escherichia coli, UniProt P0A988); assay: Saturation transfer difference (STD)-NMR of peptides with β-clamp; assay type: binding; design: made in house; conditions: 150 µM peptide, 1.5 µM β-clamp; 25°C; 20 mM sodium phosphate, 100 mM NaCl, 5 mM DTT, 0.3% DMSO, 5% D2O, pH 7.4; 600 MHz
Procedure: All peptides, except Pol III C-terminal ([sequence]), were N-terminally acetylated and C-terminally amidated to remove charges in the N-and C-termini, not present in the context of the full-length proteins.
Unlabeled and ^2H, ^13C, ^15N-labeled E. coli β-clamp was expressed and purified as previously described [54]. The β-clamp concentration was determined by absorbance at 280 nm measured on a NanoDrop ND-1000 spectrophotometer (Thermo Fisher Scientific Inc.) and using an extinction coefficient calculated by the Expasy ProtParam web tool (https://web.expasy.org/protparam/) [55]. All β-clamp concentrations are listed as the protomer concentration. The peptides were readily soluble at micromolar concentration, although at high micromolar concentrations, we cannot rule out the presence of aggregates.
Saturation transfer difference (STD)-nuclear magnetic resonance (NMR) experiments were performed at 25°C on a Bruker Avance III HD 600 MHz NMR spectrometer equipped with a 5-mm QCI Cryoprobe. […] Samples were transferred to 5-mm NMR tubes.

ΔrecA ΔrecB cells [1] = assay: DNA degradation assay after UV ("reckless" DNA degradation); assay type: cell-based, Escherichia coli; conditions: expressed from pUT18C in ΔrecA ΔrecB; UV 50 J/m^2, 3 h; Hoechst 33258 microscopy
Procedure: (§1) IMR13 (ΔrecA) served as a positive control for RecB-mediated DNA degradation, while IMR19 (ΔrecA ΔrecB) was used as a negative control.
(§2) Overnight cultures were diluted to an OD600 of 0.01 into LB medium supplemented with appropriate antibiotics and incubated with shaking at 37°C until they reached an OD600 of 0.2. Each culture was split into two 1 ml aliquots. One aliquot was fixed immediately in ethanol (50% final concentration) to assess DNA content prior to UV exposure. The second aliquot was pelleted, resuspended in 1× PBS, and exposed to UV light at a dose of 50 J/m^2 (CL-1000 Ultraviolet crosslinker, UVP). […]
(§3) Imaging was performed on a Leica DM6000 B fluorescence microscope equipped with a 100× oil immersion objective (Leica HCX Plan Apochromat 100×, 1.40 NA, PH3 CS), a Leica EL6000 metal-halide illumination system, and a Hamamatsu C9100-14 EM-CCD camera. For each sample, six fields of view were acquired, each including both phase-contrast and fluorescence channels. Fluorescence imaging was conducted using a narrow band-pass filter set optimized for CFP (Excitation: 426–446 nm; Emission: 460–500 nm; exposure time: 30 ms). All imaging parameters—including exposure time, illumination intensity, and gain—were kept constant across all strains, treatments, and replicates to ensure quantitative comparability and minimize experimental bias. […]

ΔrecA ΔrecB cells [2] = assay: Basal DNA content without UV; assay type: cell-based, Escherichia coli; conditions: expressed from pUT18C in ΔrecA ΔrecB; no UV; compared to wild-type RecB
Procedure: as §1, §2, §3

BTH101 ΔrecB cells = assay: Western blot of RecB expression level; design: species or system Escherichia coli; conditions: pUT18C constructs in BTH101 ΔrecB; Ponceau S normalized; relative to BTH101 wild type
Procedure: Samples, including purified RecB, β-clamp (purified as previously explained for co-immunoprecipitation), input (10 µg; 0.5%), and pull-down eluates, and samples from BTH101 cultures used in survival assays, were mixed with 1 mM dithiothreitol (DTT) and 1× NuPAGE LDS sample buffer, then heated to 75°C for 10 min. […] SeeBlue Plus2 Pre-stained Protein Standard (Invitrogen) was used as a molecular weight marker.
Proteins were transferred onto 0.2-µm nitrocellulose membranes using the Trans-Blot Turbo Transfer System (Bio-Rad), and membranes were blocked in 5% (w/v) skim milk (Merck) in PBS-T (PBS with 0.1% Tween-20) for 45–60 min at room temperature. […] Following protein transfer, these membranes were also incubated in 0.1% (w/v) Ponceau S solution for 5 min to verify transfer efficiency and account for total protein loading. The stain was visualized, imaged for densitometric normalization, and subsequently removed by washing with deionized water prior to blocking. […]
Relative RecB levels were quantified from the western blot images using Fiji (ImageJ) [58]. […] The lane profiles were plotted, and the measured signal from each lane was first normalized to the relevant Ponceau stain signal from the same lane and then to the wild-type strain.

recB strains = conditions: RecB mutation D1080A; ref [82]; cited from earlier work
RecA = conditions: RecB mutation D1080A; ref [82]; cited from earlier work
[3] = target: T1, Escherichia coli β-clamp (DnaN), recombinantly expressed and purified (Escherichia coli, UniProt P0A988 1-366); assay: STD-NMR; 150 µM peptide with 1.5 µM unlabeled β-clamp, 20 mM sodium phosphate, 100 mM NaCl, 5 mM DTT, 0.3% DMSO, pH 7.4, 25°C; conditions: both partners purified
T1 construct: β-clamp (dnaN), E. coli; homodimer; Unlabeled in STD-NMR and ITC; 2H,13C,15N-labeled in the TROSY-HSQC experiments; also called DNA sliding clamp; source: recombinantly expressed and purified as previously described [54]

[4] = target: T1, Escherichia coli β-clamp (DnaN), …; assay: ITC; 278-294 µM β-clamp in the syringe titrated into 70.6 µM peptide in the cell; 20 mM sodium phosphate, 100 mM NaCl, 1 mM TCEP, 0.02% DMSO, pH 7.4, 25°C; one-site model; three replicates; conditions: both partners purified

Chain of β-clamp (P0A988 whole entry): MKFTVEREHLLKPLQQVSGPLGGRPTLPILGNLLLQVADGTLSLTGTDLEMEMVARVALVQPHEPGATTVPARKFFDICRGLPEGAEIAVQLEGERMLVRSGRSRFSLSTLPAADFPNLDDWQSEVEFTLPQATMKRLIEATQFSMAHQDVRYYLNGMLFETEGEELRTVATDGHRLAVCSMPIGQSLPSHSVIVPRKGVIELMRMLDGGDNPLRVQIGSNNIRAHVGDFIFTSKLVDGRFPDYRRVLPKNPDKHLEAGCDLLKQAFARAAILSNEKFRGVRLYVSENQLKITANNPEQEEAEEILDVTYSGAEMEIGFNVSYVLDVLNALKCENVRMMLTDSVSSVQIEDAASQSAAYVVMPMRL
T1 sequence (P0A988 whole entry): as above

Molecule: KQVEMEAY [QVEMEF variant in which the terminal phenylalanine was replaced with alanine]
- STD-NMR binding (β-clamp): no detectable binding

Molecule: GKNQALRFV [RecB helicase motif peptide (residues 485–489) with one C-terminal and three N-terminal flanking residues]
- STD-NMR binding (β-clamp): did not exhibit detectable STD signals under the conditions tested

Molecule: GQADMFG [DNA polymerase III internal CBM peptide, positive control, reference compound]
- STD-NMR binding (β-clamp): clear binding

Molecule: EQVELEFD [DNA polymerase III C-terminal CBM peptide, positive control, reference compound]
- STD-NMR binding (β-clamp): clear binding

Molecule: GKNQALRAV [phenylalanine-to-alanine variant of the RecB helicase motif peptide]
- STD-NMR binding (β-clamp): did not exhibit detectable STD signals under the conditions tested

B1: RecBF489A: RecB with an F489A substitution in the QALRF motif (protein, UniProt P08394 2-1180, looked up, variant F489A)
RecBCD enzyme subunit RecB: SDVAETLDPLRLPLQGERLIEASAGTGKTFTIAALYLRLLLGLGGSAAFPRPLTVEELLVVTFTEAATAELRGRIRSNIHELRIACLRETTDNPLYERLLEEIDDKAQAAQWLLLAERQMDEAAVFTIHGFCQRMLNLNAFESGMLFEQQLIEDESLLRYQACADFWRRHCYPLPREIAQVVFETWKGPQALLRDINRYLQGEAPVIKAPPPDDETLASRHAQIVARIDTVKQQWRDAVGELDALIESSGIDRRKFNRSNQAKWIDKISAWAEEETNSYQLPESLEKFSQRFLEDRTKAGGETPRHPLFEAIDQLLAEPLSIRDLVITRALAEIRETVAREKRRRGELGFDDMLSRLDSALRSESGEVLAAAIRTRFPVAMIDEFQDTDPQQYRIFRRIWHHQPETALLLIGDPKQAIYAFRGADIFTYMKARSEVHAHYTLDTNWRSAPGMVNSVNKLFSQTDDAFMFREIPFIPVKSAGKNQALRAVFKGETQPAMKMWLMEGESCGVGDYQSTMAQVCAAQIRDWLQAGQRGEALLMNGDDARPVRASDISVLVRSRQEAAQVRDALTLLEIPSVYLSNRDSVFETLEAQEMLWLLQAVMTPERENTLRSALATSMMGLNALDIETLNNDEHAWDVVVEEFDGYRQIWRKRGVMPMLRALMSARNIAENLLATAGGERRLTDILHISELLQEAGTQLESEHALVRWLSQHILEPDSNASSQQMRLESDKHLVQIVTIHKSKGLEYPLVWLPFITNFRVQEQAFYHDRHSFEAVLDLNAAPESVDLAEAERLAEDLRLLYVALTRSVWHCSLGVAPLVRRRGDKKGDTDVHQSALGRLLQKGEPQDAAGLRTCIEALCDDDIAWQTAQTGDNQPWQVNDVSTAELNAKTLQRLPGDNWRVTSYSGLQQRGHGIAQDLMPRLDVDAAGVASVVEEPTLTPHQFPRGASPGTFLHSLFEDLDFTQPVDPNWVREKLELGGFESQWEPVLTEWITAVLQAPLNETGVSLSQLSARNKQVEMEFYLPISEPLIASQLDTLIRQFDPLSAGCPPLEFMQVRGMLKGFIDLVFRHEGRYYLLDYKSNWLGEDSSAYTQQAMAAAMQAHRYDLQYQLYTLALHRYLRHRIADYDYEHHFGGVIYLFLRGVDKEHPQQGIYTTRPNAGLIALMDEMFAGMTLEEA
- reckless DNA degradation after UV (ΔrecA ΔrecB cells [1]): did not
- basal DNA content (ΔrecA ΔrecB cells [2]): No significant difference in DNA content
- RecB expression level relative to endogenous RecB (BTH101 ΔrecB cells): ~2 times

B2: D1080A: RecB mutation that disrupts the interaction between RecB and RecA (protein, UniProt P08394 2-1180, looked up, variant D1080A)
RecBCD enzyme subunit RecB: SDVAETLDPLRLPLQGERLIEASAGTGKTFTIAALYLRLLLGLGGSAAFPRPLTVEELLVVTFTEAATAELRGRIRSNIHELRIACLRETTDNPLYERLLEEIDDKAQAAQWLLLAERQMDEAAVFTIHGFCQRMLNLNAFESGMLFEQQLIEDESLLRYQACADFWRRHCYPLPREIAQVVFETWKGPQALLRDINRYLQGEAPVIKAPPPDDETLASRHAQIVARIDTVKQQWRDAVGELDALIESSGIDRRKFNRSNQAKWIDKISAWAEEETNSYQLPESLEKFSQRFLEDRTKAGGETPRHPLFEAIDQLLAEPLSIRDLVITRALAEIRETVAREKRRRGELGFDDMLSRLDSALRSESGEVLAAAIRTRFPVAMIDEFQDTDPQQYRIFRRIWHHQPETALLLIGDPKQAIYAFRGADIFTYMKARSEVHAHYTLDTNWRSAPGMVNSVNKLFSQTDDAFMFREIPFIPVKSAGKNQALRFVFKGETQPAMKMWLMEGESCGVGDYQSTMAQVCAAQIRDWLQAGQRGEALLMNGDDARPVRASDISVLVRSRQEAAQVRDALTLLEIPSVYLSNRDSVFETLEAQEMLWLLQAVMTPERENTLRSALATSMMGLNALDIETLNNDEHAWDVVVEEFDGYRQIWRKRGVMPMLRALMSARNIAENLLATAGGERRLTDILHISELLQEAGTQLESEHALVRWLSQHILEPDSNASSQQMRLESDKHLVQIVTIHKSKGLEYPLVWLPFITNFRVQEQAFYHDRHSFEAVLDLNAAPESVDLAEAERLAEDLRLLYVALTRSVWHCSLGVAPLVRRRGDKKGDTDVHQSALGRLLQKGEPQDAAGLRTCIEALCDDDIAWQTAQTGDNQPWQVNDVSTAELNAKTLQRLPGDNWRVTSYSGLQQRGHGIAQDLMPRLDVDAAGVASVVEEPTLTPHQFPRGASPGTFLHSLFEDLDFTQPVDPNWVREKLELGGFESQWEPVLTEWITAVLQAPLNETGVSLSQLSARNKQVEMEFYLPISEPLIASQLDTLIRQFDPLSAGCPPLEFMQVRGMLKGFIDLVFRHEGRYYLLAYKSNWLGEDSSAYTQQAMAAAMQAHRYDLQYQLYTLALHRYLRHRIADYDYEHHFGGVIYLFLRGVDKEHPQQGIYTTRPNAGLIALMDEMFAGMTLEEA
- survival rates after UV exposure (recB strains): comparable to those observed in strains with a complete recB deletion
- interaction between RecB and RecA (RecA): disrupts the interaction between RecB and RecA

B3: Pol III internal peptide (GQADMFG) (peptide)
peptide: Ac-GQADMFG-NH2
notes: also called QADMF peptide; source: synthetic peptide; bought: TAG Copenhagen
- binding result [3]: binds

B4: RecB nuclease motif peptide (KQVEMEFY) (peptide)
peptide: Ac-KQVEMEFY-NH2
notes: also called QVEMEF peptide; RecB-derived QVEMEF peptide; source: synthetic peptide; bought: TAG Copenhagen
- Kd [4]: 2000 nM

B5: Pol III C-terminal peptide (EQVELEFD) (peptide)
peptide: EQVELEFD
notes: free termini; also called QVELEF peptide; source: synthetic peptide; bought: TAG Copenhagen
- binding result [3]: binds
